Measurements as given in doi:10.1101/2025.09.29.679184.

Tests used:
[1] = target: N-terminally Avi-tagged Lotus SYMRK kinase 4A (Lotus japonicus); assay: BLI
[2] = target: N-terminally Avi-tagged Lotus SYMRK kinase 4D (Lotus japonicus); assay: BLI

KD1 (2:1 heterogenous ligand fit) [1]: 2.2 µM | KD2 (2:1 heterogenous ligand fit) [1]: 6.4 µM | KD1 (2:1 heterogenous ligand fit) [2]: 452 nM | KD2 (2:1 heterogenous ligand fit) [2]: 1 µM
Substance: Lotus japonicus Early Phosphorylated Protein 1a (EPP1a) WT, purified (natural protein)
